Laboratory results as given in PMC2172279.

Columns and labels:
Assay in all cases: co-sedimentation
[1] = target: dHMM heavy chain (dilute heavy meromyosin: six IQ motifs followed by a coiled-coil tail) (murine) (UniProt Q99104)
[2] = target: MD2IQ heavy chain (murine myosin V motor domain and the first two IQ motifs) (murine) (UniProt Q99104)
[3] = target: dFull heavy chain (expressed full-length murine myosin V) (murine)

mol CaM dissociated per mol HC in calcium (mol CaM per mol HC) [1]: 1.5 | mol CaM dissociated per mol HC in calcium (mol CaM per mol HC) [2]: 0.5 | mol CaM dissociated per mol HC in calcium (mol CaM per mol HC) [3]: 1.7
Substance: wild-type calmodulin (WT-CaM) (from UniProt P0DP33 1-149) (natural protein)
